Drawing on PMC13418256, this text covers TLR5-driven NF-κB activation (SEAP colorimetric reporter) in HEK293T-Blue-hTLR5 cells stimulated with an Ent strain expressing only FliCH (ΔfliCP-tldR-gRNA), against the WT lysogenic strain (fold of the WT lysogenic strain) for 1 substance.

This experiment addresses human TLR5 (human) (UniProt O60602).
Chain of UniProt O60602 (O60602 21-858): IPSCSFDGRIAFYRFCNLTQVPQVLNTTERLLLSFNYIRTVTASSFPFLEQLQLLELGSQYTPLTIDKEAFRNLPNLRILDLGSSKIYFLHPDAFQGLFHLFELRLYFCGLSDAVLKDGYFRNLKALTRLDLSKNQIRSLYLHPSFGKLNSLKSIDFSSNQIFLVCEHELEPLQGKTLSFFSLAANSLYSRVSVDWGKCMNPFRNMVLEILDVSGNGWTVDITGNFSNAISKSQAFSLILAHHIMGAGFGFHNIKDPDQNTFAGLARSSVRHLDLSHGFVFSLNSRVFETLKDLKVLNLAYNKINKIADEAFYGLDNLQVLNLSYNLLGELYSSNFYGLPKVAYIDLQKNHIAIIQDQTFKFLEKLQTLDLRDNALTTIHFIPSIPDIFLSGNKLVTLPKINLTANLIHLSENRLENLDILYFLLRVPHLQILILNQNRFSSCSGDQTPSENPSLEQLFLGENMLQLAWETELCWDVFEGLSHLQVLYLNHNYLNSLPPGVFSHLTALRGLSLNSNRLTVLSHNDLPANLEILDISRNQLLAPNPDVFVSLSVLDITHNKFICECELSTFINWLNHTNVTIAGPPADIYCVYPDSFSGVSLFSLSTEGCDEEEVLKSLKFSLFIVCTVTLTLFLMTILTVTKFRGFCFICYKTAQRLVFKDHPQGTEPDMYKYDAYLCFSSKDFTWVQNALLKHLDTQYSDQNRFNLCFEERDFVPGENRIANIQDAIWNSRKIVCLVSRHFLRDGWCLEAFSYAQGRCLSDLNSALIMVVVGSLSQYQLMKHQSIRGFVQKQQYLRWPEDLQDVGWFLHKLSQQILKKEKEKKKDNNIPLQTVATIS

“Enterobacter sp. BIDMC93 host-encoded flagellin FliCH (natural protein)” showed a TLR5-driven NF-κB activation (SEAP colorimetric reporter) in HEK293T-Blue-hTLR5 cells stimulated with an Ent strain expressing only FliCH (ΔfliCP-tldR-gRNA), against the WT lysogenic strain (fold of the WT lysogenic strain) of 2.
